Results published in the supplement of paper PMC11780869.

tested on: Bacillus subtilis; assay: cleaved RNA product abundance (RNA/gDNA barcode ratio) relative to median wild-type variant (ratio to wild type); higher = more accumulation of the downstream cleavage product; settings: experiment (reporter, strain, medium): exp 8a: truncated aprE reporter, strain BJT201 with 2% xylose (RNase J1 expressed); cleavage site: glnRA (positions -5 to +31 mutated)
Outline: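 In LB at 37°C, B. subtilis cultures went from OD600 0.0003 to 0.3. Their chromosomes held barcoded reporter mRNAs, truncated aprE or tetM, with RNase Y cleavage-site windows mutagenized via oligos at a 9% error rate. Cleaved RNA, chosen by gel, was reverse transcribed and barcode-sequenced alongside genomic DNA barcodes with UMI collapsing, giving a per-construct RNA:gDNA ratio scaled to the median construct with the unmutated site. This scaled ratio is termed cleaved product abundance.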

First: CGACATGTCCCGCTTCTTTCATTAATCCTTTAGCAACAGTTTTGCTATATACATTTACCTTTTAAGAGGAGGAAT
Second: CGACATGTCCCGCTTCTTTCATTAATCCTTTAGCAACGGTTTTGCTATATACATTTACCTTTTAAGAGGAGGAAT
The “cleaved RNA product abundance” value of the first is lower: 0.115 for the first, 0.7 for the second.

Going from “CGACATGTCCCGCTTCTTTCATTAATCCTTTAGCAACTATTTTGCTATATACATTTACCTTTTAAGAGGAGGAAT” to “CGACATGTCCCGCTTCTTTCATTAATCCTTTAGCAACTCTTTTGCTATATACATTTACCTTTTAAGAGGAGGAAT”, the “cleaved RNA product abundance” value rises from 0.828 to 1.2.

Going from “CGACATGTCCCGCTTCTTTCATTAATCCTTTAGCAACTGATTTGCTATATACATTTACCTTTTAAGAGGAGGAAT” to “CGACATGTCCCGCTTCTTTCATTAATCCTTTAGCAACTGCTTTGCTATATACATTTACCTTTTAAGAGGAGGAAT”, the “cleaved RNA product abundance” value falls from 0.509 to 0.292.

Going from “CGACATGTCCCGCTTCTTTCATTAATCCTTTAGCAACTGGTTTGCTATATACATTTACCTTTTAAGAGGAGGAAT” to “CGACATGTCCCGCTTCTTTCATTAATCCTTTAGCAACTGTATTGCTATATACATTTACCTTTTAAGAGGAGGAAT”, the “cleaved RNA product abundance” value rises from 0.306 to 0.83.

Compared with “CGACATGTCCCGCTTCTTTCATTAATCCTTTAGCAACTGTCTTGCTATATACATTTACCTTTTAAGAGGAGGAAT”, “CGACATGTCCCGCTTCTTTCATTAATCCTTTAGCAACTGTTATGCTATATACATTTACCTTTTAAGAGGAGGAAT” is lower in “cleaved RNA product abundance” value: 0.661 for the first, 0.471 for the second.

Going from “CGACATGTCCCGCTTCTTTCATTAATCCTTTAGCAACTGTTTCGCTATATACATTTACCTTTTAAGAGGAGGAAT” to “CGACATGTCCCGCTTCTTTCATTAATCCTTTAGCAACTGTTTTACTATATACATTTACCTTTTAAGAGGAGGAAT”, the “cleaved RNA product abundance” value rises from 0.282 to 0.513.

Compared with “CGACATGTCCCGCTTCTTTCATTAATCCTTTAGCAACTGTTTTCCTATATACATTTACCTTTTAAGAGGAGGAAT”, “CGACATGTCCCGCTTCTTTCATTAATCCTTTAGCAACTGTTTTGATATATACATTTACCTTTTAAGAGGAGGAAT” is higher in “cleaved RNA product abundance” value: 0.283 for the first, 0.374 for the second.

Going from “CGACATGTCCCGCTTCTTTCATTAATCCTTTAGCAACTGTTTTGCAATATACATTTACCTTTTAAGAGGAGGAAT” to “CGACATGTCCCGCTTCTTTCATTAATCCTTTAGCAACTGTTTTGCCATATACATTTACCTTTTAAGAGGAGGAAT”, the “cleaved RNA product abundance” value falls from 0.453 to 0.2.

Going from “CGACATGTCCCGCTTCTTTCATTAATCCTTTAGCAACTGTTTTGCGATATACATTTACCTTTTAAGAGGAGGAAT” to “CGACATGTCCCGCTTCTTTCATTAATCCTTTAGCAACTGTTTTGCGATATACATTTACTTTTTAAGAGGAGGAAT”, the “cleaved RNA product abundance” value rises from 0.366 to 0.438.

Compared with “CGACATGTCCCGCTTCTTTCATTAATCCTTTAGCAACTGTTTTGCTATAAACATTTACCTTTTAAGAGGAGGAAT”, “CGACATGTCCCGCTTCTTTCATTAATCCTTTAGCAACTGTTTTGCTATACACATTTACCTTTTAAGAGGAGGAAT” is higher in “cleaved RNA product abundance” value: 0.176 for the first, 0.451 for the second.

Compared with “CGACATGTCCCGCTTCTTTCATTAATCCTTTAGCAACTGTTTTGCTATATACAATTACCTTTTAAGAGGAGGAAT”, “CGACATGTCCCGCTTCTTTCATTAATCCTTTAGCAACTGTTTTGCTATATACAGTTACCTTTTAAGAGGAGGAAT” is lower in “cleaved RNA product abundance” value: 0.889 for the first, 0.604 for the second.

Compared with “CGACATGTCCCGCTTCTTTCATTAATCCTTTAGCAACTGTTTTGCTATATACATATACCTTTTAAGAGGAGGAAT”, “CGACATGTCCCGCTTCTTTCATTAATCCTTTAGCAACTGTTTTGCTATATACATTAACCTTTTAAGAGGAGGAAT” is higher in “cleaved RNA product abundance” value: 0.842 for the first, 0.846 for the second.

Going from “CGACATGTCCCGCTTCTTTCATTAATCCTTTAGCAACTGTTTTGCTATATACATTGACCTTTTAAGAGGAGGAAT” to “CGACATGTCCCGCTTCTTTCATTAATCCTTTAGCAACTGTTTTGCTATATACATTTACATTTTAAGAGGAGGAAT”, the “cleaved RNA product abundance” value rises from 0.333 to 0.783.

For “CGACATGTCCCGCTTCTTTCATTAATCCTTTAGCAACTGTTTTGCTATATACATTTACCATTTAAGAGGAGGAAT”, the “cleaved RNA product abundance” value was 0.837.
